B1: Tudor domain-containing protein 3 (Homo sapiens), Q9H7E2 (parent)
chain: MLRLQMTDGHISCTAVEFSYMSKISLNTPPGTKVKLSGIVDIKNGFLLLNDSNTTVLGGEVEHLIEKWELQRSLSKHNRSNIGTEGGPPPFVPFGQKCVSHVQVDSRELDRRKTLQVTMPVKPTNDNDEFEKQRTAAIAEVAKSKETKTFGGGGGGARSNLNMNAAGNRNREVLQKEKSTKSEGKHEGVYRELVDEKALKHITEMGFSKEASRQALMDNGNNLEAALNVLLTSNKQKPVMGPPLRGRGKGRGRIRSEDEEDLGNARPSAPSTLFDFLESKMGTLNVEEPKSQPQQLHQGQYRSSNTEQNGVKDNNHLRHPPRNDTRQPRNEKPPRFQRDSQNSKSVLEGSGLPRNRGSERPSTSSVSEVWAEDRIKCDRPYSRYDRTKDTSYPLGSQHSDGAFKKRDNSMQSRSGKGPSFAEAKENPLPQGSVDYNNQKRGKRESQTSIPDYFYDRKSQTINNEAFSGIKIEKHFNVNTDYQNPVRSNSFIGVPNGEVEMPLKGRRIGPIKPAGPVTAVPCDDKIFYNSGPKRRSGPIKPEKILESSIPMEYAKMWKPGDECFALYWEDNKFYRAEVEALHSSGMTAVVKFIDYGNYEEVLLSNIKPIQTEAWEEEGTYDQTLEFRRGGDGQPRRSTRPTQQFYQPPRARN

Variants of: B1
Conditions: with rpb1_human POLR2A

Row | effect of a mutation on the interaction | Variant
1 | disrupting interaction | Y566F
2 | decreasing interaction | W567S

Continued, variant first:

Row | Variant | effect of a mutation on the interaction
3 | Y566W | increasing interaction
4 | D569A | disrupting interaction

Variants of: B1
Conditions: with rpb1_human POLR2A
Remark: another data set of the same source

Row | Variant | effect of a mutation on the interaction
5 | Y566F | with no effect

Reference: IntAct's records for PubMed 23066109
